Assay results taken from patent US11613587B2, “Combination therapy of T cell activating bispecific antigen binding molecules and PD-1 axis binding antagonists” (Hoffmann-La Roche Inc., priority 2014, dated 2023).

B1: 36F2: anti-FolR1 clone from generic multi-framework Fab library (Vk_3_20/VH_1_46) (antibody, V domains shown)
VH: QVQLVQSGAEVKKPGASVKVSCKASGYTFTSYYMHWVRQAPGQGLEWMGIINPSGGSTSYAQKFQGRVTMTHDTSTSTVYMELSSLRSEDTAVYYCARSFFTGFHLDYWGQGTLVTVSS
VL: EIVLTQSPGTLSLSPGERATLSCRASQSVSSSYLAWYQQKPGQAPRLLIYGASSRATGIPDRFSGSGSGTDFTLTISRLEPEDFAVYYCQQYTNEHYYTFGQGTKVEIK
B2: Mov19: reference human FolR1 binder, control IgG (antibody, V domains shown)
VH: QVQLQQSGAELVKPGASVKISCKASGYSFTGYFMNWVKQSHGKSLEWIGRIHPYDGDTFYNQNFKDKATLTVDKSSNTAHMELLSLTSEDFAVYYCTRYDGSRAMDYWGQGTTVTVSS
VL: DIELTQSPASLAVSLGQRAIISCKASQSVSFAGTSLMHWYHQKPGQQPKLLIYRASNLEAGVPTRFSGSGSKTDFTLNIHPVEEEDAATYYCQQSREYPYTFGGGTKLEIK

Key:
[1] = test system: HEK cells transiently transfected with cyno FolR1; assay: Cross-reactivity to cyno FolR1 on transfected HEK cells (flow cytometry); assay type: binding, cynomolgus; settings: IgG
Source text: FIGS. 4A-B depict graphs summarizing cross-reactivity of FolR1 binders to cyFoLR1. Cross-reactivity of the FolR1 antibodies to cyno FolR1 was addressed on HEK cells transiently transfected with cyFolR1 by flow cytometry.
New FolR1 binders were generated via Phage Display using either a Fab library or a common light chain library using the CD3 light chain. The identified binders were converted into a human IgG1 format and binding to FolR1 high expressing HeLa cells was addressed. As reference molecule the human FolR1 binder Mov19 was included. […] In a next step the selected clones were tested for specificity to human FolR1 by excluding binding to the closely related human FolR2. HEK cells were transiently transfected with either human FolR1 or human FolR2 to address specificity. […] Therefore these clones were excluded from further characterization. In parallel cross-reactivity of the FolR1 clones to cyno FolR1 was addressed by performing binding studies to HEK cells transiently transfected with cyno FolR1. […] Subsequently three human FolR1 specific cyno cross-reactive binders were converted into TCB format and tested for induction of T cell killing and T cell activation. […] As reference molecule Mov19 FolR1 TCB was included in all studies. These FolR1 TCBs were then used to compare induction of internalization after binding to FolR1 on HeLa cells.

huFolR1-Fc = assay: Epitope binning (SPR); assay type: binding, human; settings: 500 nM huFolR1-Fc, 500 nM binder
Description: 500 nM huFolR1-Fc was then captured for 60 s, followed by 500 nM of the different binders for 30 s. The surface was regenerated with two injections of 10 mM glycine pH 2 for 30 s each.

human FolR1 = molecular target: T1, human FolR1 (Homo sapiens, UniProt P15328); assay: SPR single injections of anti-FolR1 IgGs (Biacore T200); assay type: binding
T1 construct: the extracellular domain of the antigen linked to the hinge region of Fc-knob which is co-expressed with an Fc-hole molecule; made in house; host or cells: HEK293 EBNA
Source text: The immobilization level was about 300-400 RU.

[2] = test system: erythrocytes (CD235a positive); assay: Binding to erythrocytes (flow cytometry); design: species or system human

Molecule | binding to cyno FolR1 [1] | binding of analyte in solution to huFolR1 captured on immobilized 16D5 TCB (huFolR1-Fc) | binding of analyte in solution to huFolR1 captured on immobilized 21A5 TCB (huFolR1-Fc) | binding of analyte in solution to huFolR1 captured on immobilized Mov19 IgG (huFolR1-Fc) | dissociation from huFolR1 (human FolR1) | binding to erythrocytes [2]
B1 | bind comparably well human and cyno FoLR1 | + (+means binding) | + (+means binding) | − | dissociated rapidly from huFolR1 | 
B2 |  | + (+means binding) | + (+means binding) | − |  | could not observe any specific binding
